B1: TIR1 (wild type, epitope-tagged, expressed in Nicotiana) [Arabidopsis] / GST-IAA3 [Arabidopsis] (parent)
chain 1: MQKRIALSFPEEVLEHVFSFIQLDKDRNSVSLVCKSWYEIERWCRRKVFIGNCYAVSPATVIRRFPKVRSVELKGKPHFADFNLVPDGWGGYVYPWIEAMSSSYTWLEEIRLKRMVVTDDCLELIAKSFKNFKVLVLSSCEGFSTDGLAAIAATCRNLKELDLRESDVDDVSGHWLSHFPDTYTSLVSLNISCLASEVSFSALERLVTRCPNLKSLKLNRAVPLEKLATLLQRAPQLEELGTGGYTAEVRPDVYSGLSVALSGCKELRCLSGFWDAVPAYLPAVYSVCSRLTTLNLSYATVQSYDLVKLLCQCPKLQRLWVLDYIEDAGLEVLASTCKDLRELRVFPSEPFVMEPNVALTEQGLVSVSMGCPKLESVLYFCRQMTNAALITIARNRPNMTRFRLCIIEPKAPDYLTLEPLDIGFGAIVEHCKDLRRLSLSGLLTDKVFEYIGTYAKKMEMLSVAFAGDSDLGMHHVLSGCDSLRKLEIRDCPFGDKALLANASKLETMRSLWMSSCSVSFGACKLLGQKMPKLNVEVIDERGAPDSRPESCPVERVFIYRTVAGPRFDMPGFVWNMDQDSTMRFSRQIITTNGL
chain 2: MDEFVNLKETELRLGLPGTDNVCEAKERVSCCNNNNKRVLSTDTEKEIESSSRKTETSPPRKAQIVGWPPVRSYRKNNIQSKKNESEHEGQGIYVKVSMDGAPYLRKIDLSCYKGYSELLKALEVMFKFSVGEYFERDGYKGSDFVPTYEDKDGDWMLIGDVPWEMFICTCKRLRIMKGSEAKGLGCGV

The variants in this assay derive from B1. The experiment in a line: pull-down (semi in vitro, GST-IAA3 with Nicotiana cell extracts, anti-HA blot). The conditions noted are these: 10 µM 2,4-D.
On to chain 1 MQKRIALSFPEEVLEHVFSFIQLDKDRNSVSLVCKSWYEIERWCRRKVFIGNCYAVSPATVIRRFPKVRSVELKGKPHFADFNLVPDGWGGYVYPWIEAMSSSYTWLEEIRLKRMVVTDDCLELIAKSFKNFKVLVLSSCEAFSTDGLAAIAATCRNLKELDLRESDVDDVSGHWLSHFPDTYTSLVSLNISCLASEVSFSALERLVTRCPNLKSLKLNRAVPLEKLATLLQRAPQLEELGTGGYTAEVRPDVYSGLSVALSGCKELRCLSGFWDAVPAYLPAVYSVCSRLTTLNLSYATVQSYDLVKLLCQCPKLQRLWVLDYIEDAGLEVLASTCKDLRELRVFPSEPFVMEPNVALTEQGLVSVSMGCPKLESVLYFCRQMTNAALITIARNRPNMTRFRLCIIEPKAPDYLTLEPLDIGFGAIVEHCKDLRRLSLSGLLTDKVFEYIGTYAKKMEMLSVAFAGDSDLGMHHVLSGCDSLRKLEIRDCPFGDKALLANASKLETMRSLWMSSCSVSFGACKLLGQKMPKLNVEVIDERGAPDSRPESCPVERVFIYRTVAGPRFDMPGFVWNMDQDSTMRFSRQIITTNGL [chain 1 G142A], for which the ratio to parent was 0.45. As for chain 1 MQKRIALSFPEEVLEHVFSFIQLDKDRNSVSLVCKSWYEIERWCRRKVFIGNCYAVSPATVIRRFPKVRSVELKGKPHFADFNLVPDGWGGYVYPWIEAMSSSYTWLEEIRLKRMVATDDCLELIAKSFKNFKVLVLSSCEGFSTDGLAAIAATCRNLKELDLRESDVDDVSGHWLSHFPDTYTSLVSLNISCLASEVSFSALERLVTRCPNLKSLKLNRAVPLEKLATLLQRAPQLEELGTGGYTAEVRPDVYSGLSVALSGCKELRCLSGFWDAVPAYLPAVYSVCSRLTTLNLSYATVQSYDLVKLLCQCPKLQRLWVLDYIEDAGLEVLASTCKDLRELRVFPSEPFVMEPNVALTEQGLVSVSMGCPKLESVLYFCRQMTNAALITIARNRPNMTRFRLCIIEPKAPDYLTLEPLDIGFGAIVEHCKDLRRLSLSGLLTDKVFEYIGTYAKKMEMLSVAFAGDSDLGMHHVLSGCDSLRKLEIRDCPFGDKALLANASKLETMRSLWMSSCSVSFGACKLLGQKMPKLNVEVIDERGAPDSRPESCPVERVFIYRTVAGPRFDMPGFVWNMDQDSTMRFSRQIITTNGL [chain 1 V117A], the ratio to parent is 0.44. As to chain 1 MQKRIALSFPEEVLEHVFSFIQLDKDRNSVSLVCKSWYEIERWCRRKVFIGNCYAVSPATVIRRFPKVRSVELKGKPHFADFNLVPDGWGGYVYPWIEAMSSSYTWLEEIRLKRMVVTDDCLELIAKSFKNFKVLVLSSCEGASTDGLAAIAATCRNLKELDLRESDVDDVSGHWLSHFPDTYTSLVSLNISCLASEVSFSALERLVTRCPNLKSLKLNRAVPLEKLATLLQRAPQLEELGTGGYTAEVRPDVYSGLSVALSGCKELRCLSGFWDAVPAYLPAVYSVCSRLTTLNLSYATVQSYDLVKLLCQCPKLQRLWVLDYIEDAGLEVLASTCKDLRELRVFPSEPFVMEPNVALTEQGLVSVSMGCPKLESVLYFCRQMTNAALITIARNRPNMTRFRLCIIEPKAPDYLTLEPLDIGFGAIVEHCKDLRRLSLSGLLTDKVFEYIGTYAKKMEMLSVAFAGDSDLGMHHVLSGCDSLRKLEIRDCPFGDKALLANASKLETMRSLWMSSCSVSFGACKLLGQKMPKLNVEVIDERGAPDSRPESCPVERVFIYRTVAGPRFDMPGFVWNMDQDSTMRFSRQIITTNGL [chain 1 F143A], the ratio to parent came to 0.5. In the case of chain 1 MQKRIALSFPEEVLEHVFSFIQLDKDRNSVSLVCKSWYEIERWCRRKVFIGNCYAVSPATVIRRFPKVRSVELKGKPHFADFNLVPDGWGGYVYPWIEAMSSSYTWLEEIRLKRMVVTDDCLELIAKSFKNFKVLVLSSCEGFSTDGLAAAAATCRNLKELDLRESDVDDVSGHWLSHFPDTYTSLVSLNISCLASEVSFSALERLVTRCPNLKSLKLNRAVPLEKLATLLQRAPQLEELGTGGYTAEVRPDVYSGLSVALSGCKELRCLSGFWDAVPAYLPAVYSVCSRLTTLNLSYATVQSYDLVKLLCQCPKLQRLWVLDYIEDAGLEVLASTCKDLRELRVFPSEPFVMEPNVALTEQGLVSVSMGCPKLESVLYFCRQMTNAALITIARNRPNMTRFRLCIIEPKAPDYLTLEPLDIGFGAIVEHCKDLRRLSLSGLLTDKVFEYIGTYAKKMEMLSVAFAGDSDLGMHHVLSGCDSLRKLEIRDCPFGDKALLANASKLETMRSLWMSSCSVSFGACKLLGQKMPKLNVEVIDERGAPDSRPESCPVERVFIYRTVAGPRFDMPGFVWNMDQDSTMRFSRQIITTNGL [chain 1 I151A], the ratio to parent worked out at 0.46. chain 1 MQKRIALSFPEEVLEHVFSFIQLDKDRNSVSLVCKSWYEIERWCRRKVFIGNCYAVSPATVIRRFPKVRSVELKGKPHFADFNLVPDGWGGYVYPWIEAMSSSYTWLEEIRLKRMVVTDDCLELIAKSFKNFKVLVLSSAEGFSTDGLAAIAATCRNLKELDLRESDVDDVSGHWLSHFPDTYTSLVSLNISCLASEVSFSALERLVTRCPNLKSLKLNRAVPLEKLATLLQRAPQLEELGTGGYTAEVRPDVYSGLSVALSGCKELRCLSGFWDAVPAYLPAVYSVCSRLTTLNLSYATVQSYDLVKLLCQCPKLQRLWVLDYIEDAGLEVLASTCKDLRELRVFPSEPFVMEPNVALTEQGLVSVSMGCPKLESVLYFCRQMTNAALITIARNRPNMTRFRLCIIEPKAPDYLTLEPLDIGFGAIVEHCKDLRRLSLSGLLTDKVFEYIGTYAKKMEMLSVAFAGDSDLGMHHVLSGCDSLRKLEIRDCPFGDKALLANASKLETMRSLWMSSCSVSFGACKLLGQKMPKLNVEVIDERGAPDSRPESCPVERVFIYRTVAGPRFDMPGFVWNMDQDSTMRFSRQIITTNGL [chain 1 C140A]: the ratio to parent is 0.62.

These data come from article PMC5019376.
